Source: the supplement of paper PMC7125110
± gives the standard error. Fewer inactive variants are shown than the library holds.

B1: glmS ribozyme (parent)
chain: AUAAAAGCGCCAGAACUACAGAAAUGUAGUUGACGAGGAGGAGGUUUAUCGAAUUUUCGGCGGAUGCCUCCAAA

Key:
Conditions in all cases: with glucosamine-6-phosphate
[1] = variants of: B1; assay: self-cleavage kobs at 40 uM GlcN6P; higher = faster cleavage; RNA array
Method in brief: (§1)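 Tiles bearing barcoded ribozyme variants, transcribed in situ by E. coli RNA polymerase on sequenced MiSeq chips, were imaged over ~14 h at 37 °C using a hybridised Cy3 probe. Glucosamine-6-phosphate was supplied at 40 μM to 10 mM in HEPES/KCl/Mg(OAc)2 buffer. kobs came from one- or two-exponential decay fits to normalised per-tile medians, and weighted Michaelis–Menten fits then provided kcat and KM.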

[2] = variants of: B1; assay: self-cleavage kobs at 640 uM GlcN6P; higher = faster cleavage; RNA array
Method in brief: as §1

[3] = variants of: B1; assay: self-cleavage kobs at 10000 uM GlcN6P; higher = faster cleavage; RNA array
Method in brief: as §1

[4] = variants of: B1; assay: self-cleavage kobs at 2500 uM GlcN6P; higher = faster cleavage; RNA array
Method in brief: as §1

[5] = variants of: B1; assay: self-cleavage kobs at 160 uM GlcN6P; higher = faster cleavage; RNA array
Method in brief: as §1

Variant | self-cleavage kobs at 40 uM GlcN6P [1] [s⁻¹] | self-cleavage kobs at 640 uM GlcN6P [2] [s⁻¹] | self-cleavage kobs at 10000 uM GlcN6P [3] [s⁻¹] | self-cleavage kobs at 2500 uM GlcN6P [4] [s⁻¹] | self-cleavage kobs at 160 uM GlcN6P [5] [s⁻¹]
G51U U57C | < 1e-05 | < 1e-05 | < 1e-05 |  | 
G37U A39U U45G G51A G59A | < 1e-05 |  |  |  | 
C8G G32A G59U | < 1e-05 |  | < 1e-05 | < 1e-05 | 
A6G G32C | < 1e-05 | < 1e-05 | < 1e-05 |  | < 1e-05
C16G G40U U65C | < 1e-05 | < 1e-05 |  |  | 
C10U A36C U56C | < 1e-05 |  |  |  | 
G51C A53C | < 1e-05 | < 1e-05 |  |  | 
G7U G9A A14U C50G | 0.000146 ± 5.4e-05 | 0.000267 ± 5.8e-05 | 0.000226 ± 5.3e-05 | 0.000647 ± 0.00016 | 0.000138 ± 3.6e-05
G29A U31C G35U G66A | < 1e-05 |  |  |  | 
C10U G38C | < 1e-05 |  |  |  | < 1e-05
G7C U65G | < 1e-05 | < 1e-05 | < 1e-05 | < 1e-05 | 
C10U U54A U57C | < 1e-05 |  |  |  | 
U56G G63C | < 1e-05 | < 1e-05 | < 1e-05 |  | < 1e-05
C11U C34G G41A U47G | < 1e-05 | < 1e-05 | < 1e-05 | < 1e-05 | 
C61G C71G | 3.55e-05 ± 1.3e-05 | 7.69e-05 ± 2.5e-05 |  | 4.16e-05 ± 1.6e-05 | 0.000119 ± 3e-05
G37U G41C C67A | < 1e-05 |  |  |  | 
C11U C58G C68U | 7.67e-05 ± 2.5e-05 | 0.000262 ± 7e-05 | 5.66e-05 ± 1.6e-05 |  | 0.000349 ± 9.1e-05
G7C G40A | < 1e-05 | < 1e-05 | < 1e-05 | < 1e-05 | < 1e-05
U30C A33C | < 1e-05 | < 1e-05 |  |  | < 1e-05
A42G G60U C68G | < 1e-05 | < 1e-05 |  |  | 
C10U C16U G38A A48G | < 1e-05 |  | < 1e-05 |  | 
C16G A36C | < 1e-05 | < 1e-05 | < 1e-05 |  | 
A42G G63A U69G | < 1e-05 |  | < 1e-05 |  | 

Variant | self-cleavage kobs at 40 uM GlcN6P [1] [s⁻¹] | self-cleavage kobs at 640 uM GlcN6P [2] [s⁻¹] | self-cleavage kobs at 10000 uM GlcN6P [3] [s⁻¹] | self-cleavage kobs at 2500 uM GlcN6P [4] [s⁻¹] | self-cleavage kobs at 160 uM GlcN6P [5] [s⁻¹]
C8U C16U A52G | < 1e-05 |  |  |  | 
C50U C61G G63U | < 1e-05 |  |  |  | 
G9C U45C | < 1e-05 |  |  | < 1e-05 | 
A6G A33C | < 1e-05 | < 1e-05 | < 1e-05 | < 1e-05 | < 1e-05
G66A C70A | 8.27e-05 ± 1.4e-05 | 0.000708 ± 0.00013 | 0.000947 ± 0.00015 | 0.00036 ± 8.5e-05 | 7.28e-05 ± 2.8e-05
U46G U49C | < 1e-05 | < 1e-05 | < 1e-05 | < 1e-05 | < 1e-05
C10A C34G | < 1e-05 | < 1e-05 | < 1e-05 | < 1e-05 | 
C8A C11G | < 1e-05 | < 1e-05 | < 1e-05 | < 1e-05 | < 1e-05
G13U G44U G51C | < 1e-05 |  |  |  | 
G9A U55C C71A | < 1e-05 | < 1e-05 |  | < 1e-05 | 
G43U U47A | < 1e-05 |  |  |  | 
C16G G29C | 0.000686 ± 9.2e-05 | 0.00972 ± 0.0043 | 0.0294 ± 0.0058 | 0.00501 ± 0.0018 | 0.00103 ± 0.00047
A39C C61A | < 1e-05 | < 1e-05 | < 1e-05 | < 1e-05 | < 1e-05
C10U U54A C70A | < 1e-05 |  |  |  | 
C50U U57A G60U | < 1e-05 |  | < 1e-05 |  | 
C8A C34U U47C C67U | < 1e-05 |  | < 1e-05 |  | 
G29C U65C | < 1e-05 |  |  |  | < 1e-05
A53U C68U | 0.000159 ± 2.1e-05 | 0.000788 ± 9.5e-05 | 0.00507 ± 0.00083 | 0.00421 ± 0.00073 | 0.000357 ± 0.00011
G41C C61G | < 1e-05 | < 1e-05 |  | < 1e-05 | < 1e-05
C34G G63C | < 1e-05 | < 1e-05 | < 1e-05 |  | < 1e-05
G41U A42G G44A A48G | < 1e-05 | < 1e-05 |  |  | 
G35U U46A C58U | < 1e-05 |  | < 1e-05 | < 1e-05 | < 1e-05
A6G G35A A39C G62C U65G C67A | < 1e-05 |  |  |  | 

Variant | self-cleavage kobs at 40 uM GlcN6P [1] [s⁻¹] | self-cleavage kobs at 640 uM GlcN6P [2] [s⁻¹] | self-cleavage kobs at 10000 uM GlcN6P [3] [s⁻¹] | self-cleavage kobs at 2500 uM GlcN6P [4] [s⁻¹] | self-cleavage kobs at 160 uM GlcN6P [5] [s⁻¹]
G13A U46G | < 1e-05 |  | 0.00013 ± 3e-05 |  | < 1e-05
U55G C71U | 0.00104 ± 0.00015 | 0.00353 ± 0.0005 | 0.034 ± 0.0078 | 0.0044 ± 0.00066 | 0.00128 ± 0.00022
U57C G62U U65C | < 1e-05 |  | < 1e-05 |  | 
C10U C16G G35C A42U U57G G59A | < 1e-05 |  |  |  | 
A12G A14G U30A U46C U49C U57C | < 1e-05 |  | < 1e-05 | < 1e-05 | 
A39G U56G | 0.00055 ± 0.00012 |  | 0.0224 ± 0.0047 |  | 
G41U G63C C70A | < 1e-05 |  |  |  | 
A14G A36U A48U | < 1e-05 |  |  |  | 
A6G G51A | < 1e-05 | < 1e-05 | < 1e-05 | < 1e-05 | < 1e-05
G7U G29C | < 1e-05 | < 1e-05 | < 1e-05 | < 1e-05 | < 1e-05
G29C A36C U49C U54G | < 1e-05 |  |  |  | 
A15U C61G | < 1e-05 |  | < 1e-05 |  | 
C11G G40A A42G C58U C67G C68A | 0.00042 ± 9.3e-05 |  | 0.000191 ± 3.9e-05 |  | 
G41U A48U C68A | < 1e-05 |  |  | < 1e-05 | 
G9A C11G | < 1e-05 | < 1e-05 | < 1e-05 | < 1e-05 | < 1e-05
U45G A48U C71G | < 1e-05 |  |  |  | 
U31A A33G A39U G43A A48U | < 1e-05 |  | < 1e-05 |  | 
G7C G29C G35U | < 1e-05 | < 1e-05 | < 1e-05 |  | 
C8G G59U | < 1e-05 | < 1e-05 |  | < 1e-05 | < 1e-05
A33U C34U | < 1e-05 | < 1e-05 | < 1e-05 |  | < 1e-05
A39C U69G | < 1e-05 | < 1e-05 | < 1e-05 |  | 
A48U C67U C70U | < 1e-05 |  |  | < 1e-05 | 
C10U A12U A33U A53G C58U U69G | 9.07e-05 ± 2.5e-05 | 0.000216 ± 5.1e-05 | 6.22e-05 ± 1.8e-05 | 0.000132 ± 4.1e-05 | 0.000159 ± 3.3e-05

Variant | self-cleavage kobs at 40 uM GlcN6P [1] [s⁻¹] | self-cleavage kobs at 640 uM GlcN6P [2] [s⁻¹] | self-cleavage kobs at 10000 uM GlcN6P [3] [s⁻¹] | self-cleavage kobs at 2500 uM GlcN6P [4] [s⁻¹] | self-cleavage kobs at 160 uM GlcN6P [5] [s⁻¹]
G51C U57C C70G | < 1e-05 |  |  |  | 
C8U A12U A33C G59U C67G U69G | < 1e-05 |  | < 1e-05 | < 1e-05 | 
C34A G43C A48G | < 1e-05 |  |  |  | 
G9U A33G G38U G44U C58A | < 1e-05 |  |  |  | 
A12C G35U U47C A48U | < 1e-05 | < 1e-05 | < 1e-05 |  | 
C8U G44A | < 1e-05 | < 1e-05 |  | < 1e-05 | < 1e-05
A33U C34U G60U | < 1e-05 |  |  |  | 
C16U G40U U56A C71G | 3.89e-05 ± 1.1e-05 |  | 0.00169 ± 0.00032 |  | 
G35U G51A U54G | < 1e-05 |  | < 1e-05 |  | 
G9C A12C A14U U49G | < 1e-05 |  |  | < 1e-05 | 
A14G U31A | 0.00248 ± 0.00049 | 0.00935 ± 0.0021 | 0.0669 ± 0.024 | 0.0146 ± 0.006 | 0.0027 ± 0.00061
G40U G59C G60U C70G | < 1e-05 |  | < 1e-05 |  | 
A14U G51A U57C G60U A64G U65G | < 1e-05 |  |  |  | 
C10G G62A | < 1e-05 | < 1e-05 | < 1e-05 |  | < 1e-05
C50A G63C | < 1e-05 |  | < 1e-05 |  | < 1e-05
U54A U69C | 0.000835 ± 0.00028 | 0.000282 ± 6e-05 | 0.000426 ± 0.00011 | 0.000214 ± 6.2e-05 | 0.000323 ± 8.9e-05
G29U A36C A39C | < 1e-05 |  | < 1e-05 |  | 
C34A U45G | < 1e-05 | < 1e-05 | < 1e-05 | < 1e-05 | < 1e-05
U31A C61A A64U | < 1e-05 |  | < 1e-05 |  | 
A6G A15C A64C | < 1e-05 |  |  | < 1e-05 | 
A42C G51C | < 1e-05 | < 1e-05 | < 1e-05 |  | < 1e-05
A6C U45C G63A | < 1e-05 |  |  | < 1e-05 | 
G7A G51U | < 1e-05 | < 1e-05 |  | < 1e-05 | < 1e-05
